Experiments:
lipoatrophic mice [1] = test: Lipoatrophic mice (PPAR-γ+/− mice treated with HX531) with or without adiponectin, gAd or leptin; assay type: in vivo, mouse; conditions: for Liver TG content / Serum FFA / Serum TG / Skeletal muscle TG content: HF diet; for insulin resistance (FIG. 8): mice without adipose tissue, administration at a physiological concentration; for hyperglycemia and hyperinsulinemia (insulin resistance index, FIG. 8): lipoatrophic mice, continuous systemic infusion
Protocol: (§1) The measurements of [^14C] CO2 production from [1-^14C] palmitic acid were performed using liver and muscle slices as described (Diabetes 47, 1841-1847 (1998)). Liver and muscle homogenates were prepared, and tissue triglyceride content was determined with an extract solution (CHCl3:CH3OH=2:1). The remainder of the liver and muscle was immediately frozen in liquid nitrogen and stored at −80° C. until measurement of the enzymatic activity of ACO. ACO activity in the light mitochondrial fraction of liver and muscle was measured by assay that was based on the H2O2 dependent oxidation of leuco-dichlorofluorescein (Diabetes 47, 1841-1847 (1998)).
Unless otherwise described herein, administration was performed through continuous systemic infusion (pump) in combination with a high-fat (HF) diet for the final twelve days of the six-week HX531 treatment.
FIGS. 9 and 10 show mRNAs of fatty-acid translocase (FAT)/CD36, ACO, UCP2, and PPAR-α in mouse skeletal muscle and in liver, respectively. […] HX531 was administered as a 0.1% food admixture. Mice were stimulated with or without 1 U/g body weight of insulin for two minutes. Lysates were subjected to immunoprecipitation (IP) and immunoblotting through use of the antibodies described in Mol. Cell. Biol. 16, […] (1996).

lipoatrophic mice [2] = test: as above; assay type: in vivo, mouse; conditions: HX531 for four weeks
db/db mice [3] = test: Rosiglitazone treatment of db/db mice on high-fat diet (adiponectin expression, glucose tolerance test)
PPAR-γ+/− mice = test: Adiponectin infusion in PPAR-γ+/− mice on high-fat diet without HX531 (tissue TG, serum FFA/TG); assay type: in vivo, mouse; conditions: HF diet, no HX531, Ad 50 μg/day continuous infusion 12 days
Protocol: as §1
While PPAR-γ^+/− mice were treated with HX531 for six weeks (+) or untreated (−), recombinant full-length adiponectin (Ad), gAd, or leptin (Lep) was administered to each PPAR-γ^+/− mouse at a predetermined dose (μg/day). Administration was performed through continuous systemic infusion in combination with the high-fat (HF) diet for the final twelve days of the six-week HX531 treatment (six weeks).

KKA^y mice [4] = test: Adiponectin administration to KKAy mice on high-fat diet; assay type: in vivo, mouse; conditions: for ACO activity, liver / ACO activity, skeletal muscle / Fatty acid oxidation [14C] palmitate→CO2, liver / Fatty acid oxidation [14C] palmitate→CO2, skeletal muscle / Rectal temperature / Serum FFA / Serum TG / TG content, liver / TG content, skeletal muscle: high fat diet, two weeks
Protocol: as §1
The mice were fed an HC or HF diet.
The following values were determined through use of KKA^y mice: acyl-CoA oxidase (ACO) activity and fatty acid oxidation in the skeletal muscle and in the liver, tissue triglyceride content in the skeletal muscle and in the liver, and serum free fatty acid level and serum triglyceride level. Mice were fed with high fat diet, and full-length adiponectin (Ad) or adiponectin globular domain (gAd) was administered to each mice at a dose shown in Table 2 for two weeks.

db/db mice [5] = tested on: db/db mice
Protocol: (§2) Adiponectin or leptin was administered to mice through intraperitoneal injection or continuous systemic infusion as described (Nature 401, 73-76 (1999)). An Alzet micro-osmotic pump (model 1002, Alza) was inserted subcutaneously in the back of each mouse. A daily dose (shown in Figures) of recombinant leptin (Sigma) or adiponectin was dissolved in a total volume of 0.1 mL of PBS, and the solution was delivered to mice through the pump for twelve days.
(§3) The areas of glucose and insulin curves were calculated by multiplying the cumulative mean height of the glucose values (1 mg/ml=1 cm) and insulin values (1 ng/ml=1 cm), respectively, by time (60 min=1 cm) (Am. J. Physiol. 240, E482-488 (1981)).
(§4) The mice were fed an HC or HF diet. In addition, Ad or gAd was administered, or none of these was administered, to the mice at a predetermined dose (μg/day).

KKA^y mice [6] = test: Adiponectin administration to KKAy mice on high-fat diet; assay type: in vivo, mouse; conditions: adiponectin-administered KKAy mice
KK mice = test: Adiponectin administration to KK mice (serum leptin); assay type: in vivo, mouse
Protocol: as §2

[7] = PPAR-γ+/− mice, HX531 alone for 6 weeks
[8] = HX531 6 weeks + Ad 50 μg/day continuous infusion final 12 days
[9] = db/db mice, adiponectin replenishment
[10] = HX531 6 weeks + gAd 2.5 μg/day continuous infusion final 12 days
[11] = gAd at a low concentration, mRNA (FIG. 9)
[12] = normal C57 mice, high-fat diet, two weeks

Protocol for C57 mice: as §2, §3, §4

Molecule: CN1c2ccc([N+](=O)[O-])cc2N=C(c2ccc(C(=O)O)cc2)c2cc3c(cc21)C(C)(C)CCC3(C)C [HX531, reference compound]
- Liver TG content (lipoatrophic mice [1]; [7]): 19.36 ± 1.23 mg/g tissue
- Serum FFA (lipoatrophic mice [1]; [7]): 1.48 ± 0.25 mEq/L
- Serum TG (lipoatrophic mice [1]; [7]): 201.4 ± 25.3 mg/dL
- Skeletal muscle TG content (lipoatrophic mice [1]; [7]): 15.96 ± 1.47 mg/g tissue
- lowering of expression of lipoprotein lipase (LPL) in WAT (lipoatrophic mice [1]; PPAR-γ+/− mice, HX531 for three weeks): ≥ 90%
- visible WAT (lipoatrophic mice [2]): disappearance of visible WAT

Molecule: leptin: recombinant leptin (Sigma)
- insulin resistance (FIG. 8) (lipoatrophic mice [1]): alleviate their insulin resistance, albeit partially

Molecule: CN(CCOc1ccc(CC2SC(=O)NC2=O)cc1)c1ccccn1 (stereo not drawn) [Rosiglitazone]
- adipose tissue mass (db/db mice [3]): 2.84 ± 0.16 g
- body weight (db/db mice [3]): 47.9 ± 1.0 g

B1: Ad: recombinant full-length mouse adiponectin, histidine-tagged fusion protein expressed in bacteria (protein, UniProt Q15848 19-244, looked up)
Adiponectin: ETTTQGPGVLLPLPKGACTGWMAGIPGHPGHNGAPGRDGRDGTPGEKGEKGDPGLIGPKGDIGETGVPGAEGPRGFPGIQGRKGEPGEGAYVYRSAFSVGLETYVTIPNMPIRFTKIFYNQQNHYDGSTGKFHCNIPGLYYFAYHITVYMKDVKVSLFKKDKAMLFTYDQYQENNVDQASGSVLLHLEVGDQVWLQVYGEGERNGLYADNDNDSTFTGFLLYHDTN
- Liver TG content (PPAR-γ+/− mice): 6.45 ± 0.26 mg/g tissue
- Serum FFA (PPAR-γ+/− mice): 0.35 ± 0.02 mEq/L
- Serum TG (PPAR-γ+/− mice): 60.5 ± 6.0 mg/dL
- Skeletal muscle TG content (PPAR-γ+/− mice): 5.47 ± 0.32 mg/g tissue
- Liver TG content (lipoatrophic mice [1]; [8]): 16.19 ± 0.72 mg/g tissue
- Serum FFA (lipoatrophic mice [1]; [8]): 0.61 ± 0.13 mEq/L
- Serum TG (lipoatrophic mice [1]; [8]): 106.6 ± 18.1 mg/dL
- Skeletal muscle TG content (lipoatrophic mice [1]; [8]): 7.74 ± 0.65 mg/g tissue
- insulin-induced tyrosine phosphorylation of insulin receptor and insulin-receptor substrate 1 and insulin-stimulated phosphorylation of Akt kinase in skeletal muscle (lipoatrophic mice [1]; adiponectin-administered lipoatrophic mice (FIG. 11)): increase
- hyperglycemia and hyperinsulinemia (insulin resistance index, FIG. 8) (lipoatrophic mice [1]): significantly ameliorated
- insulin resistance (FIG. 8) (lipoatrophic mice [1]): not sufficient to completely ameliorate insulin resistance
- ACO activity, liver (KKA^y mice [4]; Ad 50 μg/day): 3.04 ± 0.85 nmol/mg/min
- ACO activity, skeletal muscle (KKA^y mice [4]; Ad 50 μg/day): 0.37 ± 0.04 nmol/mg/min
- Fatty acid oxidation [14C] palmitate→CO2, liver (KKA^y mice [4]; Ad 50 μg/day): 2.92 ± 0.29 nmol/g/h
- Fatty acid oxidation [14C] palmitate→CO2, skeletal muscle (KKA^y mice [4]; Ad 50 μg/day): 3.95 ± 0.58 nmol/g/h
- Rectal temperature (KKA^y mice [4]; Ad 50 μg/day): 37.3 ± 0.2 °C
- Serum FFA (KKA^y mice [4]; Ad 50 μg/day): 0.67 ± 0.09 mEq/L
- Serum TG (KKA^y mice [4]; Ad 50 μg/day): 101.3 ± 19.7 mg/dL
- TG content, liver (KKA^y mice [4]; Ad 50 μg/day): 16.15 ± 0.83 mg/g tissue
- TG content, skeletal muscle (KKA^y mice [4]; Ad 50 μg/day): 8.75 ± 0.58 mg/g tissue
- serum adiponectin levels (C57 mice; mouse, in vivo): partially restored
- expression of leptin in WAT (C57 mice; wild-type mice): did not alter
- hyperglycemia and hyperinsulinemia induced by high-fat diet (GTT) (C57 mice; wild-type mice on high-fat diet, continuous systemic infusion of low doses): significantly ameliorated
- hyperinsulinemia (GTT, FIG. 14) (db/db mice [5]; [9]): significantly ameliorated
- leptin receptor deficiency-induced hyperglycemia (GTT, FIG. 13) (db/db mice [5]; [9]): significantly ameliorated
- serum adiponectin levels (db/db mice [5]; mouse, in vivo): partially restored
- expression of enzymes involved in β-oxidation and UCP2 in skeletal muscle (KKA^y mice [6]): increased

B2: gAd: C-terminal globular domain of adiponectin, recombinant histidine-tagged fusion protein (protein, listed as Homo sapiens)
chain: AFSVGLETYVTIPNMPIRFTKIFYNQQNHYDGSTGKFHCNIPGLYYFAYHITVYMKDVKVSLFKKDKAMLFTYDQYQENNVDQASGSVLLHLEVGDQVWLQVYGEGERNGLYADNDNDSTFTGFLL
modifications: CDS (1)..(735)
- Liver TG content (lipoatrophic mice [1]; [10]): 13.81 ± 0.91 mg/g tissue
- Serum FFA (lipoatrophic mice [1]; [10]): 0.43 ± 0.14 mEq/L
- Serum TG (lipoatrophic mice [1]; [10]): 100.3 ± 17.5 mg/dL
- Skeletal muscle TG content (lipoatrophic mice [1]; [10]): 3.88 ± 1.74 mg/g tissue
- expression of CD36, acyl-CoA oxidase (ACO) and uncoupling protein (UCP) 2 in skeletal muscle (lipoatrophic mice [1]; [11]): increased
- expression of PPAR-α in skeletal muscle (lipoatrophic mice [1]; [11]): increased
- expression of CD36 in the liver (lipoatrophic mice [1]; gAd at a low concentration, mRNA (FIG. 10)): decreased
- hyperglycemia and hyperinsulinemia (insulin resistance index, FIG. 8) (lipoatrophic mice [1]): much more potently than full-length adiponectin
- serum leptin levels (KKA^y mice [4]): 57.9 ± 5.7 ng/mL
- ACO activity, liver (KKA^y mice [4]; gAd 2.5 μg/day): 2.89 ± 0.35 nmol/mg/min
- ACO activity, skeletal muscle (KKA^y mice [4]; gAd 2.5 μg/day): 0.42 ± 0.04 nmol/mg/min
- Fatty acid oxidation [14C] palmitate→CO2, liver (KKA^y mice [4]; gAd 2.5 μg/day): 2.89 ± 0.21 nmol/g/h
- Fatty acid oxidation [14C] palmitate→CO2, skeletal muscle (KKA^y mice [4]; gAd 2.5 μg/day): 4.06 ± 0.44 nmol/g/h
- Rectal temperature (KKA^y mice [4]; gAd 2.5 μg/day): 37.7 ± 0.1 °C
- Serum FFA (KKA^y mice [4]; gAd 2.5 μg/day): 0.39 ± 0.04 mEq/L
- Serum TG (KKA^y mice [4]; gAd 2.5 μg/day): 96.4 ± 18.3 mg/dL
- TG content, liver (KKA^y mice [4]; gAd 2.5 μg/day): 16.04 ± 0.91 mg/g tissue
- TG content, skeletal muscle (KKA^y mice [4]; gAd 2.5 μg/day): 8.06 ± 0.61 mg/g tissue
- serum leptin levels (KK mice): 13.4 ± 2.7 ng/mL
- Food intake (C57 mice; C57 mice on high-fat diet): 6.28 ± 0.51 g/day
- WAT weight (C57 mice; [12]): 0.48 ± 0.04 g
- body weight (C57 mice; [12]): 20.6 ± 2.1 g
- serum leptin levels (C57 mice; wild-type mice): 10.4 ± 2.6 ng/mL
- serum leptin levels (db/db mice [5]; db/db mice): 145.2 ± 14.7 ng/mL

— US20060199761A1, “Insulin resistance improving agent” (Japan Science And Technology Agency, priority 2002, published 2006)
